Results: US20200079833A1 (AstraZeneca / MedImmune, published 2020)
Starred links: 1 amine or outer side, 2 acyl side, 3 side chain; linkers in the order of their positions; H or OH if unused. Non-standard residues stand in square brackets, D forms with d. Groups on a side chain read outwards from the residue. Primed or numbered codes have the meaning given here. No end group written: not given here. *: point of attachment. γGlu = O=C(O)[C@H](CCC(=O)[*:2])N[*:1]; Stearoyl = CCCCCCCCCCCCCCCCCC(=O)*; αMeF = C[C@](N)(Cc1ccccc1)C(=O)O; αMeK = C[C@](N)(CCCCN)C(=O)O; Lauroyl = CCCCCCCCCCCC(=O)*; αMeS = C[C@](N)(CO)C(=O)O; PEG2′ = not defined here; Aib = CC(C)(N)C(=O)O; Ahx = NCCCCCC(=O)O

T1: glucose-dependent insulinotropic peptide (gastric inhibitory polypeptide) receptor (GIPR) (human, UniProt P48546 22-466)
T1 sequence (looked up): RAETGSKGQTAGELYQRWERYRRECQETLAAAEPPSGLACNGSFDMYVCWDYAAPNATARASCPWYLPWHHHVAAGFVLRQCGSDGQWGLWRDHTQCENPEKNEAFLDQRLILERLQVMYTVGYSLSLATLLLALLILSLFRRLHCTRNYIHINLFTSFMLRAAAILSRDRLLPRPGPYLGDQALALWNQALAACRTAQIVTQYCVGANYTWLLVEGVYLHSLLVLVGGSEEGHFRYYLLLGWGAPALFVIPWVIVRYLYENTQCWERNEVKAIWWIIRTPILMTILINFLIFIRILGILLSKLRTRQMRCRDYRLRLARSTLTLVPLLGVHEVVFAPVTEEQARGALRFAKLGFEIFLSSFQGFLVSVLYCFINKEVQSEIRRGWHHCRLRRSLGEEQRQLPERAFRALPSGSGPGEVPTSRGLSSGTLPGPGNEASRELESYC

B1: SEQ ID NO 164 (peptide)
peptide: H[Aib]EGS[αMeF]TSDV[αMeS]S[αMeF]LEGEAA[αMeK]E[αMeF]IA[αMeF]VVK([γGlu-Lauroyl])GG-NH2
modifications: N-terminus assumed
SMILES: CCCCCCCCCCCC(=O)N[C@@H](CCC(=O)NCCCC[C@H](NC(=O)[C@@H](NC(=O)[C@@H](NC(=O)[C@](C)(Cc1ccccc1)NC(=O)[C@H](C)NC(=O)[C@@H](NC(=O)[C@](C)(Cc1ccccc1)NC(=O)[C@H](CCC(=O)O)NC(=O)[C@](C)(CCCCN)NC(=O)[C@H](C)NC(=O)[C@H](C)NC(=O)[C@H](CCC(=O)O)NC(=O)CNC(=O)[C@H](CCC(=O)O)NC(=O)[C@H](CC(C)C)NC(=O)[C@](C)(Cc1ccccc1)NC(=O)[C@H](CO)NC(=O)[C@](C)(CO)NC(=O)[C@@H](NC(=O)[C@H](CC(=O)O)NC(=O)[C@H](CO)NC(=O)[C@@H](NC(=O)[C@](C)(Cc1ccccc1)NC(=O)[C@H](CO)NC(=O)CNC(=O)[C@H](CCC(=O)O)NC(=O)C(C)(C)NC(=O)[C@@H](N)Cc1c[nH]cn1)[C@@H](C)O)C(C)C)[C@@H](C)CC)C(C)C)C(C)C)C(=O)NCC(=O)NCC(N)=O)C(=O)O
B2: SEQ ID NO 165 (peptide)
peptide: H[Aib]EGS[αMeF]TSDV[αMeS]S[αMeF]LEGEAA[αMeK]E[αMeF]IA[αMeF]VVK([γGlu-γGlu-Lauroyl])GG-NH2
modifications: N-terminus assumed
SMILES: CCCCCCCCCCCC(=O)N[C@@H](CCC(=O)N[C@@H](CCC(=O)NCCCC[C@H](NC(=O)[C@@H](NC(=O)[C@@H](NC(=O)[C@](C)(Cc1ccccc1)NC(=O)[C@H](C)NC(=O)[C@@H](NC(=O)[C@](C)(Cc1ccccc1)NC(=O)[C@H](CCC(=O)O)NC(=O)[C@](C)(CCCCN)NC(=O)[C@H](C)NC(=O)[C@H](C)NC(=O)[C@H](CCC(=O)O)NC(=O)CNC(=O)[C@H](CCC(=O)O)NC(=O)[C@H](CC(C)C)NC(=O)[C@](C)(Cc1ccccc1)NC(=O)[C@H](CO)NC(=O)[C@](C)(CO)NC(=O)[C@@H](NC(=O)[C@H](CC(=O)O)NC(=O)[C@H](CO)NC(=O)[C@@H](NC(=O)[C@](C)(Cc1ccccc1)NC(=O)[C@H](CO)NC(=O)CNC(=O)[C@H](CCC(=O)O)NC(=O)C(C)(C)NC(=O)[C@@H](N)Cc1c[nH]cn1)[C@@H](C)O)C(C)C)[C@@H](C)CC)C(C)C)C(C)C)C(=O)NCC(=O)NCC(N)=O)C(=O)O)C(=O)O
B3: SEQ ID NO 168 (peptide)
peptide: H[Aib]EGS[αMeF]TSDV[αMeS]S[αMeF]LEGEAA[αMeK]E[αMeF]IA[αMeF]VVK([Ahx-Ahx-Lauroyl])GG-NH2
modifications: N-terminus assumed
SMILES: CCCCCCCCCCCC(=O)NCCCCCC(=O)NCCCCCC(=O)NCCCC[C@H](NC(=O)[C@@H](NC(=O)[C@@H](NC(=O)[C@](C)(Cc1ccccc1)NC(=O)[C@H](C)NC(=O)[C@@H](NC(=O)[C@](C)(Cc1ccccc1)NC(=O)[C@H](CCC(=O)O)NC(=O)[C@](C)(CCCCN)NC(=O)[C@H](C)NC(=O)[C@H](C)NC(=O)[C@H](CCC(=O)O)NC(=O)CNC(=O)[C@H](CCC(=O)O)NC(=O)[C@H](CC(C)C)NC(=O)[C@](C)(Cc1ccccc1)NC(=O)[C@H](CO)NC(=O)[C@](C)(CO)NC(=O)[C@@H](NC(=O)[C@H](CC(=O)O)NC(=O)[C@H](CO)NC(=O)[C@@H](NC(=O)[C@](C)(Cc1ccccc1)NC(=O)[C@H](CO)NC(=O)CNC(=O)[C@H](CCC(=O)O)NC(=O)C(C)(C)NC(=O)[C@@H](N)Cc1c[nH]cn1)[C@@H](C)O)C(C)C)[C@@H](C)CC)C(C)C)C(C)C)C(=O)NCC(=O)NCC(N)=O
B4: SEQ ID NO 167 (peptide)
peptide: H[Aib]EGS[αMeF]TSDV[αMeS]S[αMeF]LEGEAA[αMeK]E[αMeF]IA[αMeF]VVK([Ahx-Lauroyl])GG-NH2
modifications: N-terminus assumed
SMILES: CCCCCCCCCCCC(=O)NCCCCCC(=O)NCCCC[C@H](NC(=O)[C@@H](NC(=O)[C@@H](NC(=O)[C@](C)(Cc1ccccc1)NC(=O)[C@H](C)NC(=O)[C@@H](NC(=O)[C@](C)(Cc1ccccc1)NC(=O)[C@H](CCC(=O)O)NC(=O)[C@](C)(CCCCN)NC(=O)[C@H](C)NC(=O)[C@H](C)NC(=O)[C@H](CCC(=O)O)NC(=O)CNC(=O)[C@H](CCC(=O)O)NC(=O)[C@H](CC(C)C)NC(=O)[C@](C)(Cc1ccccc1)NC(=O)[C@H](CO)NC(=O)[C@](C)(CO)NC(=O)[C@@H](NC(=O)[C@H](CC(=O)O)NC(=O)[C@H](CO)NC(=O)[C@@H](NC(=O)[C@](C)(Cc1ccccc1)NC(=O)[C@H](CO)NC(=O)CNC(=O)[C@H](CCC(=O)O)NC(=O)C(C)(C)NC(=O)[C@@H](N)Cc1c[nH]cn1)[C@@H](C)O)C(C)C)[C@@H](C)CC)C(C)C)C(C)C)C(=O)NCC(=O)NCC(N)=O
B5: SEQ ID NO 166 (peptide)
peptide: H[Aib]EGS[αMeF]TSDV[αMeS]S[αMeF]LEGEAA[αMeK]E[αMeF]IA[αMeF]VVK([γGlu-γGlu-γGlu-Lauroyl])GG-NH2
modifications: N-terminus assumed
SMILES: CCCCCCCCCCCC(=O)N[C@@H](CCC(=O)N[C@@H](CCC(=O)N[C@@H](CCC(=O)NCCCC[C@H](NC(=O)[C@@H](NC(=O)[C@@H](NC(=O)[C@](C)(Cc1ccccc1)NC(=O)[C@H](C)NC(=O)[C@@H](NC(=O)[C@](C)(Cc1ccccc1)NC(=O)[C@H](CCC(=O)O)NC(=O)[C@](C)(CCCCN)NC(=O)[C@H](C)NC(=O)[C@H](C)NC(=O)[C@H](CCC(=O)O)NC(=O)CNC(=O)[C@H](CCC(=O)O)NC(=O)[C@H](CC(C)C)NC(=O)[C@](C)(Cc1ccccc1)NC(=O)[C@H](CO)NC(=O)[C@](C)(CO)NC(=O)[C@@H](NC(=O)[C@H](CC(=O)O)NC(=O)[C@H](CO)NC(=O)[C@@H](NC(=O)[C@](C)(Cc1ccccc1)NC(=O)[C@H](CO)NC(=O)CNC(=O)[C@H](CCC(=O)O)NC(=O)C(C)(C)NC(=O)[C@@H](N)Cc1c[nH]cn1)[C@@H](C)O)C(C)C)[C@@H](C)CC)C(C)C)C(C)C)C(=O)NCC(=O)NCC(N)=O)C(=O)O)C(=O)O)C(=O)O

Molecular target: GLP-1 receptor (GLP-1R) (human, UniProt P43220 24-463)
Experiment: cell-based or functional assay

Primary assay EC50 (cAMP), GLP-1R n1 [pM] | Primary assay EC50 (cAMP), GLP-1R n2 [pM] | Primary assay EC50 (cAMP), Mean pM GLP-1R [pM] | Binder
22 | 7.8 | 14.6 | B1
14 | 6 | 10.2 | B2
5.1 | 2.6 | 3.8 | B3
13 | 6.9 | 10 | B4
7.2 | 2.7 | 4.9 | B5
63 | 49 | 56 | H[Aib]EGS[αMeF]TSDV[αMeS]S[αMeF]LEGEAAK([PEG2′-PEG2′-PEG2′-Stearoyl])E[αMeF]IA[αMeF]VV[αMeK]GG-NH2 [SEQ ID NO 163]

Molecular target: glucagon receptor (GCGR) (human, UniProt P47871 26-477)
Sequence (P47871 26-477): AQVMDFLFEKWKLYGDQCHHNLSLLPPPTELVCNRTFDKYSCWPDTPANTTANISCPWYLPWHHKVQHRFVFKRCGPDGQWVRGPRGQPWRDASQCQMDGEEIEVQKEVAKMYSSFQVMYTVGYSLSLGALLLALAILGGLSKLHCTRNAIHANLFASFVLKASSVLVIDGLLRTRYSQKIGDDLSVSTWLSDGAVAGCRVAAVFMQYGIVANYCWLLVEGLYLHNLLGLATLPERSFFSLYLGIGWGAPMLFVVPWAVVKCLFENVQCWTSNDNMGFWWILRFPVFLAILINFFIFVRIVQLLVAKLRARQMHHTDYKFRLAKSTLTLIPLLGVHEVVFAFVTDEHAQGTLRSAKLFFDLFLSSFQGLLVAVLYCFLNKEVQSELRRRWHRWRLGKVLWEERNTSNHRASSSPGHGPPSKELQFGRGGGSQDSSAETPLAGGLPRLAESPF
Experiment: cell-based or functional assay

Primary assay EC50 (cAMP), Gluc-R, first run [nM] | Primary assay EC50 (cAMP), Gluc-R, second run [nM] | Binder
28 | 28 | B1
27 | 27 | B2
28 | 28 | B3
29 | 29 | B4
26 | 26 | B5
25 | 25 | H[Aib]EGS[αMeF]TSDV[αMeS]S[αMeF]LEGEAAK([PEG2′-PEG2′-PEG2′-Stearoyl])E[αMeF]IA[αMeF]VV[αMeK]GG-NH2 [SEQ ID NO 163]

Molecular target: T1, glucose-dependent insulinotropic …
Experiment: cell-based or functional assay

Primary assay EC50 (cAMP), GIP-R, first run [nM] | Primary assay EC50 (cAMP), GIP-R, second run [nM] | Binder
28 | 28 | B1
27 | 27 | B2
28 | 28 | B3
29 | 29 | B4
26 | 26 | B5
25 | 25 | H[Aib]EGS[αMeF]TSDV[αMeS]S[αMeF]LEGEAAK([PEG2′-PEG2′-PEG2′-Stearoyl])E[αMeF]IA[αMeF]VV[αMeK]GG-NH2 [SEQ ID NO 163]
